Common to all, as to assay: fluorescence polarization
The target in series [1] is T1, wt-CTCF (3xFLAG-Halo-wt-CTCF-6xHis) (mouse, UniProt Q61164 1-736).
T1 sequence: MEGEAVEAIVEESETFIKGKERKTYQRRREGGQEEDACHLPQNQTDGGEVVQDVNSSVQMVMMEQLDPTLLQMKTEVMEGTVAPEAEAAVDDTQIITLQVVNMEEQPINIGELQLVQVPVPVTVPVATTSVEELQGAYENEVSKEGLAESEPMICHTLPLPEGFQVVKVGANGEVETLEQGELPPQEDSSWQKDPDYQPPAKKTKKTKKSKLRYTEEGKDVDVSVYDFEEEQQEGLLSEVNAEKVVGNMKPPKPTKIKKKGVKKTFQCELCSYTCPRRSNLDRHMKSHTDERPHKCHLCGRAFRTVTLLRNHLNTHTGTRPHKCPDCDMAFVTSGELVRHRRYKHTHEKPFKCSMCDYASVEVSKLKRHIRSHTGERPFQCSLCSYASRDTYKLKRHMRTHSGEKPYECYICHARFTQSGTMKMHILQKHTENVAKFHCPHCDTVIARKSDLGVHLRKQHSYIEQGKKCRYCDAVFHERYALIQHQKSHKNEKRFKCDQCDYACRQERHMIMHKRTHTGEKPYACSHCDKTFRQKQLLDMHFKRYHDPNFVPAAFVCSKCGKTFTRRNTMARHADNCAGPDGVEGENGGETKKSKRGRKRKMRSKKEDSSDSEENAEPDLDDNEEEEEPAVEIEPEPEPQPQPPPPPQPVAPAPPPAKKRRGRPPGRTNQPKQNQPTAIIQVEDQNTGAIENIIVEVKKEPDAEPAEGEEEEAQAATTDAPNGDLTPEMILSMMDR

The target in series [2] is T2, ΔRBRi-CTCF (3xFLAG-Halo-ΔRBRi-CTCF-6xHis) (mouse, UniProt Q61164 1-575+612-736, internal_change).
T2 sequence: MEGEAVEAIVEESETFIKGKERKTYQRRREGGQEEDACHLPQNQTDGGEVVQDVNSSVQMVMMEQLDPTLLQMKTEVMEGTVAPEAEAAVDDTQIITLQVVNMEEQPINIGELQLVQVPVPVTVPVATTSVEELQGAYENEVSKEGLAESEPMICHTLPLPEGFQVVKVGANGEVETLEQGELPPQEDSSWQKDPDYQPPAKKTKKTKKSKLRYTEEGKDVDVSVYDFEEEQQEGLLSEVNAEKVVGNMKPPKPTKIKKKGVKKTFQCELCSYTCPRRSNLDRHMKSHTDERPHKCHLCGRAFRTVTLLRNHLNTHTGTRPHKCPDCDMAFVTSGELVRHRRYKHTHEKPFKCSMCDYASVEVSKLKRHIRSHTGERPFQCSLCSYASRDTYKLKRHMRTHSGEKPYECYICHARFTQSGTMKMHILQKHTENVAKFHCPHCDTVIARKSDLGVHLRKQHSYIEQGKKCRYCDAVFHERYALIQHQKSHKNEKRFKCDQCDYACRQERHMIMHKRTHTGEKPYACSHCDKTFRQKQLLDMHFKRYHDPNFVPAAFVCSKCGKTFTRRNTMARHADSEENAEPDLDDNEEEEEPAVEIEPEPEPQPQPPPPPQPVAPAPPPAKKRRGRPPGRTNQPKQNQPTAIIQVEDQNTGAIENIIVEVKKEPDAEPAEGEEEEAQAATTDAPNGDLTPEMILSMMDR

The target of series [3] is T1, wt-CTCF (3xFLAG-Halo-wt-CTCF-6xHis). The source holds these as a separate data set.
The target in series [4] is T2, ΔRBRi-CTCF …. The source holds these as a separate data set.

Read-outs that look alike come from different tables or passages of the source.

B1: Core CTCF binding site duplex (dsDNA)
DNA 1: AGGACCAGCAGGGGGCGCA
DNA 2: TGCGCCCCCTGCTGGTCCT
B1: the binding result in series [1] and in series [2] was “binds” each time.

B2: Mutated core CTCF binding site duplex (dsDNA)
DNA 1: AGGATTCTAATTTCGATCA
DNA 2: TGATCGAAATTAGAATCCT
In the case of B2, the binding result in series [3] and in series [4] was “no binding” each time.

The record behind these values is publication PMC7036004.
